One molecule from patent publication US10100120B2, “Antibody which specifically binds to human CRTH2” (KYOWA HAKKO KIRIN CO., LTD, priority 2015, dated 2018) can be followed below.

In assay [1] the target is T1, mutated human CRTH2 with amino acid substitution (Homo sapiens, UniProt Q9Y5Y4, E15A/L14A/P12A).
T1 construct: inserting genes encoding various mutants with amino acid substitution obtained by deleting termination codons; expressed in transfected cells; host or cells: CHO-S cells (Lifetechnologies), transient (phmAG1-MNLinker vector)
T1 sequence (Q9Y5Y4 1-395 P12A/L14A/E15A): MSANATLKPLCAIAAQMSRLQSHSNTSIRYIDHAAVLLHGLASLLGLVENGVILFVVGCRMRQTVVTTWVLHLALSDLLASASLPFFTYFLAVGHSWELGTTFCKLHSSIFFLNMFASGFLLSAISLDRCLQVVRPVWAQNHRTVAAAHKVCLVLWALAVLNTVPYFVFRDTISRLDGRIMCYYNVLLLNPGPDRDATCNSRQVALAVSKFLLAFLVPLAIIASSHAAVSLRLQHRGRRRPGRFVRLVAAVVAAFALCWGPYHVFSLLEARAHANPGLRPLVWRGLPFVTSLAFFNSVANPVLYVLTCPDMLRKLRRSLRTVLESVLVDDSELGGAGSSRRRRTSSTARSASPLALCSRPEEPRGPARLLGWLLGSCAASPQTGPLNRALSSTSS
In words: Epitope analysis using CHO-S cells which express mutated human CRTH2 with amino acid substitution. The conditions noted are these: mutant P12A, L14A, and E15A; antibody 10 μg/mL; relative to wild-type = 100%. It counts as binding. In a few lines: (§1)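 CHO-S cells transiently expressing alanine-substituted human CRTH2 extracellular mutants, C-terminally Azami-Green tagged, 24 h post-transfection. Antibodies at 10 μg/mL, 4 °C 1 h, then Alexa647 anti-IgG secondary 4 °C 1 h; flow cytometry on Azami-Green-positive cells. Reactivity = Alexa647 intensity divided by Azami-Green intensity.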

Assay [2] has as its target T2, mutated human CRTH2 with amino acid substitution (Homo sapiens, UniProt Q9Y5Y4, N185A/Y183A/Y184A).
T2 construct: inserting genes encoding various mutants with amino acid substitution obtained by deleting termination codons; expressed in transfected cells; host or cells: CHO-S cells (Lifetechnologies), transient (phmAG1-MNLinker vector)
T2 sequence (Q9Y5Y4 1-395 Y183A/Y184A/N185A): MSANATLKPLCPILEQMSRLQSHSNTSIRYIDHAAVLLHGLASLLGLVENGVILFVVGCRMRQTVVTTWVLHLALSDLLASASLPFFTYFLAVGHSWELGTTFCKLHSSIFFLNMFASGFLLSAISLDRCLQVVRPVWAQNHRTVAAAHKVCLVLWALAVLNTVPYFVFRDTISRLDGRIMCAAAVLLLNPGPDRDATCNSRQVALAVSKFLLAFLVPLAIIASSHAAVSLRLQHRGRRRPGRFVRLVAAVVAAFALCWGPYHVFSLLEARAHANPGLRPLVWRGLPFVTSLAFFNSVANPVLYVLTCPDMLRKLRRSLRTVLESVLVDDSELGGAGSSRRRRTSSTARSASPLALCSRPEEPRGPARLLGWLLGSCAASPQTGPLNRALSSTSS
The assay is described as above. It counts as binding. To be noted: mutant Y183A, Y184A, and N185A; antibody 10 μg/mL; relative to wild-type = 100%. In a few lines: as §1

B1: LV0HV1: humanized Lym2 antibody, VL LV0 (SEQ ID NO: 33), VH HV1 (SEQ ID NO: 51) (antibody, V domains shown)
VH: EVQLVESGGGVVQPGRSLRLSCAASGFTFSNYYMAWVRQAPGKGLEWVATISYDGSSTYYRDSVKGRFTISRDNAKNSLYLQMNSLRAEDTATYYCARHRGYYYSGAGYFDYWGQGTMVTVSS
VL: DIVMTQTPLSLPVTPGESASISCRSSQSLEYSDGYTYLEWYLQKPGQSPQVLIYGVSNRFSGVPDRFSGSGSGTDFTLKISRVEAEDVGVYYCFQATHDPLTFGQGTKLEIK
Take B1: the “reactivity against cells expressing mutated human CRTH2” value in assay [1] and in assay [2] was “lost” throughout.
